Measured values from patent publication US20160136234A1.

Tests used:
Assay in all cases: cell-based or functional assay
[1] = target: Mitogen-Activated Protein Kinase-Activated Protein Kinase 3 (human) (UniProt Q16644)
Ros (h) (human) = Ros (h) (human) (UniProt P08922)
CDK2/cyclinE (h) (human) = CDK2/cyclinE (h) (human) (UniProt P24941)
PKG1β (h) (human) = target: T1, PKG1β (h) (human) (UniProt Q13976)
T1 sequence (looked up): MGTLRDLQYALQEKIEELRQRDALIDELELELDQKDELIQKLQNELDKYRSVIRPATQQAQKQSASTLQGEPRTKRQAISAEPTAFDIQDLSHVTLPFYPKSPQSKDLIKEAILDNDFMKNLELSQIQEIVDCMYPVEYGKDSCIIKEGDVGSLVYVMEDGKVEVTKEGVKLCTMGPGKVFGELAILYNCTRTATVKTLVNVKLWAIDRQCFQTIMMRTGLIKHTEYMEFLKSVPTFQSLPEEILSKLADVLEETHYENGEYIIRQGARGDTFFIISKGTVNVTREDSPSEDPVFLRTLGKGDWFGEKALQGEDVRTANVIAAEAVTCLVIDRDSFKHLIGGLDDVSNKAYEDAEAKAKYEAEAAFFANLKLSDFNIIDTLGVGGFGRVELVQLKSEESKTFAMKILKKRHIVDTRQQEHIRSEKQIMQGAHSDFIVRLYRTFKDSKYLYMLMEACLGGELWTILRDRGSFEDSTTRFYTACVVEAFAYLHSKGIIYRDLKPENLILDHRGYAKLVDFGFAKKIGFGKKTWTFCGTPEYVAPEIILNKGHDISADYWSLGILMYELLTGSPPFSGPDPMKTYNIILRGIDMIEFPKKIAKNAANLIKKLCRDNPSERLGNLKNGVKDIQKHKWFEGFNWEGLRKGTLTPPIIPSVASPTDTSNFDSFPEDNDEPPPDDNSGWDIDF

ARK5 (h) (human) = target: T2, ARK5 (h) (human) (UniProt O60285)
T2 sequence (looked up): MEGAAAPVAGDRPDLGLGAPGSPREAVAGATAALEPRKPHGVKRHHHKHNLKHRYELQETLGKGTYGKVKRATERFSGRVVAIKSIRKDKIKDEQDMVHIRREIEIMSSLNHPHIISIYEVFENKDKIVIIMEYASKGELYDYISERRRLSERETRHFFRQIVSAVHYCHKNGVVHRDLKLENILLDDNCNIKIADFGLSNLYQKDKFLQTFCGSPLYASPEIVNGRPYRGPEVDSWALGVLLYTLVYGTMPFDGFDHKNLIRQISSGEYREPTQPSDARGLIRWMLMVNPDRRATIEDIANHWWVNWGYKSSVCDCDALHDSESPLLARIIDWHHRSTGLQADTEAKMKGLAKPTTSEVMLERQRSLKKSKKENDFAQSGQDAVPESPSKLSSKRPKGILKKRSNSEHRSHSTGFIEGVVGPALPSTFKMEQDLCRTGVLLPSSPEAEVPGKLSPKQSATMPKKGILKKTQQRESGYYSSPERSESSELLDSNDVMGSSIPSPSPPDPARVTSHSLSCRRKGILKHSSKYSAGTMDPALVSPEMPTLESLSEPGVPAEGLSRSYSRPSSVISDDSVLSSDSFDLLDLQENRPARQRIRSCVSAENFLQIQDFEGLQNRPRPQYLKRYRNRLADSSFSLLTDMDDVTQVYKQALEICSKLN

PKCα (h) (human) = PKCα (h) (human) (UniProt P17252)
NEK2 (h) (human) = target: T3, NEK2 (h) (human) (UniProt P51955)
T3 sequence (looked up): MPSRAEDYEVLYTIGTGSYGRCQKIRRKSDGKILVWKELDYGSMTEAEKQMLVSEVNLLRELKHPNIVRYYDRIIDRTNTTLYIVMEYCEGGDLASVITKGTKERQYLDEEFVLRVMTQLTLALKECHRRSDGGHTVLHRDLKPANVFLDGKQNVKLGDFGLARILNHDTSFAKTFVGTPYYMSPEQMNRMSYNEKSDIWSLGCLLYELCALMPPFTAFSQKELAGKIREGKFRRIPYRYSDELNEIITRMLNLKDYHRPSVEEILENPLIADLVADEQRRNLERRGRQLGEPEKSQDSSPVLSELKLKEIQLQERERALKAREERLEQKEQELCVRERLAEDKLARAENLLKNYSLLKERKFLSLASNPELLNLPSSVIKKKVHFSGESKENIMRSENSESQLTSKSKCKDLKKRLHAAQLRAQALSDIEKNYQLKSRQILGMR

IKKα (h) (human) = target: T4, IKKα (h) (human) (UniProt O15111)
T4 sequence (looked up): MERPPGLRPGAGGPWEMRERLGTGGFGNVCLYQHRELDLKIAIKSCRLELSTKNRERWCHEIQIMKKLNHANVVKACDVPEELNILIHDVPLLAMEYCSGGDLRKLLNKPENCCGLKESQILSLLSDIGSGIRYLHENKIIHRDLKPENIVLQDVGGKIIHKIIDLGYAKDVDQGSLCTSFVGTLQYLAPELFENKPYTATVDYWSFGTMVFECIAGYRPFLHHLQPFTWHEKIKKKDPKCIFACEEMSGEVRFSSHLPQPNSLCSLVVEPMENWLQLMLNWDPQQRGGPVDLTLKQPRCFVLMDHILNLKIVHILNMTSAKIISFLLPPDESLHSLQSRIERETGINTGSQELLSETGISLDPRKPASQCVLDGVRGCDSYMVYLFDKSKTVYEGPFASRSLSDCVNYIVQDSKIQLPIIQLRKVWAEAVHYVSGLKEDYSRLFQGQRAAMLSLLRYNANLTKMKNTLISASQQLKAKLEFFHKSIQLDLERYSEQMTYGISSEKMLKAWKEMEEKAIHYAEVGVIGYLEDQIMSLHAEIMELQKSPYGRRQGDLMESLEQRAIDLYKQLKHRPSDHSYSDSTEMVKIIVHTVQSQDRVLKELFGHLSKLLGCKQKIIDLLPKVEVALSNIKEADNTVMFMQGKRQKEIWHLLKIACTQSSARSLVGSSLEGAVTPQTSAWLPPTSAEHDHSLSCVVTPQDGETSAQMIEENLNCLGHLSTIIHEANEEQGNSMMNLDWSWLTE

Arg (h) (human) = Arg (h) (human) (UniProt P42684)
DYRK2 (h) (human) = DYRK2 (h) (human) (UniProt Q92630)
EphA4 (h) (human) = EphA4 (h) (human) (UniProt P54764)
Chain of EphA4 (h) (human) (P54764 570-986 limits assumed): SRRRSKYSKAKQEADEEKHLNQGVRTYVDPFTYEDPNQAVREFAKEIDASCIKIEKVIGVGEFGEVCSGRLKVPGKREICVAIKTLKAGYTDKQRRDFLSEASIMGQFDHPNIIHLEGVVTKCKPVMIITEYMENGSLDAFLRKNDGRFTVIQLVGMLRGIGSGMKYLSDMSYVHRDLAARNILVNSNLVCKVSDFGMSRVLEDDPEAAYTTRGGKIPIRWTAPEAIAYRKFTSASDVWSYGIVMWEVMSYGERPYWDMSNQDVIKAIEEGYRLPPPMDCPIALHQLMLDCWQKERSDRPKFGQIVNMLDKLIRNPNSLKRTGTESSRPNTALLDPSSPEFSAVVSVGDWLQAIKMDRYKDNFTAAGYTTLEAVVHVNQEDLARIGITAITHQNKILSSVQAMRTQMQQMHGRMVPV

Chain of Arg (h) (human) (P42684 38-1182 limits assumed): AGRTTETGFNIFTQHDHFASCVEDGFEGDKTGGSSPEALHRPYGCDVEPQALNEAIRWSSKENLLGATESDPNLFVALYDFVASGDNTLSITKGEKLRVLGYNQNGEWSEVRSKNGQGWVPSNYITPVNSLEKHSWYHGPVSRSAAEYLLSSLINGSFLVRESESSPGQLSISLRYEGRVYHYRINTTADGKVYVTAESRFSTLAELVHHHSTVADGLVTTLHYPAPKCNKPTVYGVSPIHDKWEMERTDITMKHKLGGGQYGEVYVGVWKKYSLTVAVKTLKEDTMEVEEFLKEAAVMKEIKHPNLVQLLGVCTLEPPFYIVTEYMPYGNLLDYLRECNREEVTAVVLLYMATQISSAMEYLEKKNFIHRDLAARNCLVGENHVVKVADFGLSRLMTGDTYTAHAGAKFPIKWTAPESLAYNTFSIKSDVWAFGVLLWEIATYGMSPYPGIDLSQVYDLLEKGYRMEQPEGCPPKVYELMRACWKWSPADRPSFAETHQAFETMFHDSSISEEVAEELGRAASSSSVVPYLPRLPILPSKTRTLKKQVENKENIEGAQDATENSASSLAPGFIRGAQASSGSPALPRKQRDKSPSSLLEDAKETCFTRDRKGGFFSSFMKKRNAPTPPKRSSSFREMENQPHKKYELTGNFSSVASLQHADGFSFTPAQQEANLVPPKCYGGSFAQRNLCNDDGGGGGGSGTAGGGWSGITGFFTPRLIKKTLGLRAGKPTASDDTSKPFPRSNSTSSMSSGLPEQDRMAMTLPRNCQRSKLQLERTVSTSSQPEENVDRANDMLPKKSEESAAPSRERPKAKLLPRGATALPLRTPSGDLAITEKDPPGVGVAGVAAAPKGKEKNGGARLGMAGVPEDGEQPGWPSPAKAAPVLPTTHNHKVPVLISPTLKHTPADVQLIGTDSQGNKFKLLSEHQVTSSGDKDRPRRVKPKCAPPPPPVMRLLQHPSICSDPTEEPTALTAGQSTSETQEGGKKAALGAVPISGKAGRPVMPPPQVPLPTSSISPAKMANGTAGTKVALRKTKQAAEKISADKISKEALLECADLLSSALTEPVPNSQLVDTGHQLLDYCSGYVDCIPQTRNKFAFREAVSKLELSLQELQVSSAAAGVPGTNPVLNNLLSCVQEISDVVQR
Chain of Ros (h) (human) (P08922 1883-2347 limits assumed): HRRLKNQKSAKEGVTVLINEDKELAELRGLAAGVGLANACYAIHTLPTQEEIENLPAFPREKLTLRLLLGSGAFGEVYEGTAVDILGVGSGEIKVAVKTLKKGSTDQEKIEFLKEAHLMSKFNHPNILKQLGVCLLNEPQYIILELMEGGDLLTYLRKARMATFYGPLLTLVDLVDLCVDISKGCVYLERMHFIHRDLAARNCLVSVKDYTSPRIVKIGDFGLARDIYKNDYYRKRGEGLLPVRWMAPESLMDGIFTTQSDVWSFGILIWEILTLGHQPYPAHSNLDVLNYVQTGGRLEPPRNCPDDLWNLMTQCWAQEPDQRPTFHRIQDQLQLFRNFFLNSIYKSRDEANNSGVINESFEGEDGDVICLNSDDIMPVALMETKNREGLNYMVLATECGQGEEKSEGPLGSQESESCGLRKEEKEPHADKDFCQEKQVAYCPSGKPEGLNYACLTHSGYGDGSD

- % activity at 100 µM [1]: 3%
- % activity at 100 µM (Ros (h) (human)): 95%
- % activity at 100 µM (CDK2/cyclinE (h) (human)): 94%
- % activity at 100 µM (PKG1β (h) (human)): 50%
- % activity at 100 µM (ARK5 (h) (human)): 78%
- % activity at 100 µM (PKCα (h) (human)): 89%
- % activity at 100 µM (NEK2 (h) (human)): 78%
- % activity at 100 µM (IKKα (h) (human)): 93%
- % activity at 100 µM (Arg (h) (human)): 72%
- % activity at 100 µM (DYRK2 (h) (human)): 155%
- % activity at 100 µM (EphA4 (h) (human)): 88%
Substance: MMI-0300 (peptide)
